System: Escherichia coli TOP10
Assay: shrunken log2 fold change of peptide-encoding DNA abundance (4.5 h post-induction vs induction); higher = less antimicrobial activity (less host growth inhibition)
Details: time post-induction: 4.5 h; library: site-saturation at positions 5, 18, 19, 20
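Further: peptides expressed intracellularly from a pBAD plasmid library in pooled LB shake-flask culture, induced with 0.3% L-arabinose, DNA abundance read by NGS, three biological replicates, DESeq2 with apeglm shrinkage.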

Sequence	shrunken log2 fold change
RRIRLRPPRLPRPRPRPHNYPRP	-0.749
RRIRVRPPRLPRPRPRPAQMPRP	0.126
RRIRNRPPRLPRPRPRPCEAPRP	-0.18
RRIRRRPPRLPRPRPRPYADPRP	-0.0932
RRIRMRPPRLPRPRPRPICNPRP	-0.0126
RRIRIRPPRLPRPRPRPVTNPRP	-0.208
RRIRYRPPRLPRPRPRPGHLPRP	-0.0798
RRIRPRPPRLPRPRPRPLLCPRP	0.127
RRIRRRPPRLPRPRPRPLDVPRP	0.179
RRIRARPPRLPRPRPRPYLLPRP	-0.76
RRIRTRPPRLPRPRPRPDDTPRP	-0.12
RRIRRRPPRLPRPRPRPENCPRP	0.0654
RRIRSRPPRLPRPRPRPATLPRP	-0.0555
RRIRERPPRLPRPRPRPPHWPRP	0.223
RRIRYRPPRLPRPRPRPAEIPRP	-0.148
RRIRERPPRLPRPRPRPGDYPRP	-0.0324
RRIRKRPPRLPRPRPRPFNEPRP	0.0442
RRIRIRPPRLPRPRPRPKEMPRP	-0.297
RRIRDRPPRLPRPRPRPRQQPRP	0.388
RRIRSRPPRLPRPRPRPYACPRP	-0.0148
RRIRQRPPRLPRPRPRPEASPRP	-0.0802
RRIRERPPRLPRPRPRPTNFPRP	-0.00437
RRIRLRPPRLPRPRPRPRNVPRP	-0.116
RRIRGRPPRLPRPRPRPLDNPRP	0.244
RRIRYRPPRLPRPRPRPKLWPRP	0.64

Sequence	shrunken log2 fold change
RRIRWRPPRLPRPRPRPLYIPRP	-0.872
RRIRKRPPRLPRPRPRPPWRPRP	0.734
RRIRNRPPRLPRPRPRPLMVPRP	-0.254
RRIRERPPRLPRPRPRPYIVPRP	0.00789
RRIRNRPPRLPRPRPRPNQYPRP	-0.712
RRIRYRPPRLPRPRPRPGSQPRP	0.0113
RRIRRRPPRLPRPRPRPWWPPRP	0.0939
RRIRYRPPRLPRPRPRPMRNPRP	0.174
RRIRRRPPRLPRPRPRPLQMPRP	-0.133
RRIRYRPPRLPRPRPRPMQCPRP	-0.00134
RRIRGRPPRLPRPRPRPGWDPRP	1.09
RRIRCRPPRLPRPRPRPAPKPRP	1.02
RRIRARPPRLPRPRPRPSKWPRP	-0.101
RRIRRRPPRLPRPRPRPERNPRP	-0.085
RRIRRRPPRLPRPRPRPMQNPRP	0.362
RRIRKRPPRLPRPRPRPCQKPRP	-0.0405
RRIRHRPPRLPRPRPRPKHQPRP	-0.195
RRIRERPPRLPRPRPRPCNHPRP	-0.567
RRIRGRPPRLPRPRPRPICLPRP	0.277
RRIRSRPPRLPRPRPRPNWYPRP	-0.382
RRIRSRPPRLPRPRPRPFAQPRP	0.185
RRIRTRPPRLPRPRPRPLARPRP	-0.0885
RRIRIRPPRLPRPRPRPALDPRP	1.45
RRIRMRPPRLPRPRPRPVEVPRP	0.389
RRIRLRPPRLPRPRPRPHDDPRP	-0.115

Sequence	shrunken log2 fold change
RRIRPRPPRLPRPRPRPGCMPRP	0.179
RRIRDRPPRLPRPRPRPQIYPRP	-0.114
RRIRRRPPRLPRPRPRPWSGPRP	0.0397
RRIRQRPPRLPRPRPRPFTMPRP	-0.141
RRIRFRPPRLPRPRPRPSCVPRP	-0.443
RRIRLRPPRLPRPRPRPDSTPRP	-0.603
RRIRNRPPRLPRPRPRPDGQPRP	-0.0321
RRIRCRPPRLPRPRPRPNIRPRP	-0.517
RRIRRRPPRLPRPRPRPGAVPRP	0.431
RRIRYRPPRLPRPRPRPWQTPRP	-0.0202
RRIRMRPPRLPRPRPRPAEAPRP	0.917
RRIRTRPPRLPRPRPRPARIPRP	-0.0205
RRIRYRPPRLPRPRPRPCSIPRP	-0.0204
RRIRPRPPRLPRPRPRPLAHPRP	0.183
RRIRERPPRLPRPRPRPMGWPRP	-0.218
RRIRYRPPRLPRPRPRPSIPPRP	-1.32
RRIRIRPPRLPRPRPRPEVHPRP	-0.102
RRIRDRPPRLPRPRPRPSARPRP	0.465
RRIRIRPPRLPRPRPRPTLPPRP	0.0197
RRIRKRPPRLPRPRPRPTYMPRP	-0.121
RRIRHRPPRLPRPRPRPVNLPRP	-0.0241
RRIRWRPPRLPRPRPRPEMFPRP	0.274
RRIRHRPPRLPRPRPRPSLFPRP	-0.625
RRIRGRPPRLPRPRPRPHPQPRP	0.546
RRIRDRPPRLPRPRPRPLHHPRP	-0.314

Sequence	shrunken log2 fold change
RRIRLRPPRLPRPRPRPWRTPRP	0.0595
RRIRWRPPRLPRPRPRPWDGPRP	0.00386
RRIRERPPRLPRPRPRPYKSPRP	-0.0824
RRIRSRPPRLPRPRPRPNINPRP	-0.612
RRIRSRPPRLPRPRPRPIVYPRP	-0.255
RRIRSRPPRLPRPRPRPQSQPRP	-0.258
RRIRDRPPRLPRPRPRPCWHPRP	2.46
RRIRWRPPRLPRPRPRPRMYPRP	-0.196
RRIRGRPPRLPRPRPRPTIGPRP	0.589
RRIRLRPPRLPRPRPRPWKYPRP	-0.0875
RRIRFRPPRLPRPRPRPYQAPRP	-0.303
RRIRKRPPRLPRPRPRPVKPPRP	0.0508
RRIRQRPPRLPRPRPRPGRRPRP	0.388
RRIRRRPPRLPRPRPRPAWGPRP	0.508
RRIRMRPPRLPRPRPRPYMVPRP	-0.0313
RRIRRRPPRLPRPRPRPKQGPRP	-0.079
RRIRTRPPRLPRPRPRPVGYPRP	0.35
RRIRMRPPRLPRPRPRPWHKPRP	-0.00776
RRIRARPPRLPRPRPRPKYKPRP	-0.31
RRIRDRPPRLPRPRPRPQCCPRP	0.0263
RRIRARPPRLPRPRPRPSCGPRP	0.287
RRIRIRPPRLPRPRPRPQDGPRP	0.0409
RRIRDRPPRLPRPRPRPCICPRP	0.159
RRIRHRPPRLPRPRPRPTEFPRP	-0.153
RRIRSRPPRLPRPRPRPSGGPRP	-0.0437

Sequence	shrunken log2 fold change
RRIRQRPPRLPRPRPRPNVRPRP	0.0221
RRIRSRPPRLPRPRPRPVLAPRP	0.557
RRIRERPPRLPRPRPRPWCVPRP	-0.94
RRIRDRPPRLPRPRPRPVWKPRP	-0.0168
RRIRVRPPRLPRPRPRPPPHPRP	0.676
RRIRTRPPRLPRPRPRPATDPRP	0.313
RRIRERPPRLPRPRPRPFMAPRP	-0.891
RRIRKRPPRLPRPRPRPNIKPRP	-0.284
RRIRGRPPRLPRPRPRPHHWPRP	0.431
RRIRWRPPRLPRPRPRPVARPRP	0.359
RRIRIRPPRLPRPRPRPLGAPRP	0.241
RRIRMRPPRLPRPRPRPNVTPRP	0.0238
RRIRRRPPRLPRPRPRPMKGPRP	0.144
RRIRERPPRLPRPRPRPTVIPRP	-0.0209
RRIRMRPPRLPRPRPRPWVVPRP	0.346
RRIRTRPPRLPRPRPRPMDNPRP	-0.458
RRIRTRPPRLPRPRPRPQWYPRP	-0.524
RRIRFRPPRLPRPRPRPIVCPRP	-0.406
RRIRMRPPRLPRPRPRPPYIPRP	-0.0556
RRIRQRPPRLPRPRPRPESAPRP	0.208
RRIRSRPPRLPRPRPRPWRNPRP	-0.0428
RRIRHRPPRLPRPRPRPNSNPRP	-1.16
RRIRRRPPRLPRPRPRPHFEPRP	-0.211
RRIRRRPPRLPRPRPRPHQFPRP	-0.183
RRIRCRPPRLPRPRPRPSFTPRP	-0.668

Reference: the supplement of paper PMC9112550, “Optimization of the antimicrobial peptide Bac7 by deep mutational scanning” (BMC Biology, 2022)
